Results from US6492344B1, “Syndecan enhancer element and syndecan stimulation of cellular differentiation” (Biotie Therapies Corp., priority 1993, dated 2002).
Entries after “also recorded” stand apart in the source; their conditions may differ.

Experiments:
[1] = tested on: FGF-inducible Response Element (FiRE); experiment: pFiRE CAT reporter activation by growth factors in 3T3NIH cells; format: cell-based, mouse; details: pFiRE transfected 3T3NIH cells; 10 ng/ml growth factor (2 ng/ml TGF-β) or 5% FCS, 2 days
Description: Each of these plasmids was transiently transfected into 3T3NIH cells, using the calcium phosphate precipitation method (Chen and Okayama, Mol. Cell Biol. 7:2745-2752 (1987)) as follows. For transient transfections NIH3T3 cells were plated at equal density on six-well plates (Falcon) two days before transfection. Plasmid DNA was transfected into cells by calcium phosphate method (Chen and Okayama, Mol. Cell Biol. 7:2745-2752 (1987)). A β-galactosidase expressing plasmid (pSV-β-galactosidase, Promega) was co-transfected with CAT constructs to monitor transfection efficiencies. Three parallel transfections were used in every assay. […] CAT activities were measured by liquid scintillation and β-galactosidase activities spectrophotometrically at 420 nm as described by Vihinen et al., J. Biol. Chem 268:17261-17269 (1993)). […]
For the gene expression analysis the fragments of the syndecan-1 upstream region were subcloned from mouse genomic clones into the XbaI site of the pCATProm vector in which a mouse syndecan-1 promoter region (−1310 to +140) was fused to the CAT reporter gene (Vihinen et al., J. Biol. Chem. 271:12532-12541 (1996)). […] These constructs were then used to transient transfect NIH3T3 cells as described supra, and CAT activity was measured.
Effect of Various Growth Factors on Enhancer Activation in NIH3T3 Cells. […] Radioactivity was measured using a gamma counter (Wallac).

3T3NIH cells = experiment: 125-IdU incorporation (DNA synthesis) assay in 3T3NIH cells; format: cell-based, mouse; details: pFiRE transfected 3T3NIH cells; 10 ng/ml growth factor (2 ng/ml TGF-β) or 5% FCS
From the text: Effect of Various Growth Factors on Enhancer Activation in NIH3T3 Cells. Plasmid pFiRE was transfected into 3T3NIH cells as described, supra. The cells were starved in DMEM medium supplemented with 5% fetal calf serum to about 70% confluence. Fetal calf serum was then replaced with 2% carboxy-methyl-Sephadex eluted fetal calf serum (CMS) 12 hrs before adding the growth factors. Various growth factors in the same medium, 5% fetal calf serum (FCS) supplemented medium or a control containing the medium, without any added growth factors were incubated with the transfected cells for 2 days, and CAT activity was measured. The effect of 10 ng/ml of FGF-2, FGF-1, FGF-4, FGF-7 (KGF), EGF, IGF1, TGFα, IFNγ, and PDGF and 2 ng/ml TGF-β were tested. The human recombinant growth factors were purchased from Peprotech (FGF-1, -2, and -7), Boehringer (FGF-2) or from Calbiochem (PDGF) TGF-β was purchased from Sigma. The effect of the added growth factors and FCS on DNA synthesis was also tested by a 125-IdU incorporation assay. This cell proliferation assay was carried out by incubating cells for 4-6 hrs with 0.25 μCi/ml 5-[^125I]iodo-2′-deoxyuridine (IdU, Amersham), washed several times with PBS and solubilized in 1 M NaOH. Radioactivity was measured using a gamma counter (Wallac).

syndecan-1 mRNA = experiment: Syndecan-1 mRNA expression in MCA3D keratinocytes; format: cell-based; details: MCA3D mouse keratinocytes
[2] = tested on: FGF-inducible Response Element (FiRE); experiment: FiRE / Syn Prom CAT reporter in MCA3D keratinocytes; format: cell-based; details: MCA3D mouse keratinocytes transfected with FiRE construct
Description: The cells used for proximal promoter constructs were 3T3 NIH, S115 (either hormone-treated or not) and nMuMG cells. For enhancer constructs we used 3T3 NIH cells grown in 2% CMS medium and MCA 3D cells grown in Ham's medium. 3T3 NIH cells were also used to test the effect of growth factors in 2% CMS medium with 10 ng/ml FGF-2 and 2ng/ml TGFβ-1. MCA 3D cells were used to test the effect of 10 ng/ml KGF.
FiRE is Induced Selectively by FGF-7 in Keratinocytes. The ability of FiRE to enhance transcription was tested in the mouse keratinocyte cell line MCA3D (Kuliz-Martin et al., Carcinogenesis 4:1367-1377 (1983)). MCA3D cells were transfected as described supra for mouse NIH3T3 cells. Following transfection, the cells were treated with fetal calf serum, PDGF, FGF-1, FGF-2, and FGF-7 as described supra for the NIH3T3 cells.

B1: FGF-7: Keratinocyte growth factor (FGF-7 or KGF) (protein, UniProt P21781 32-194, looked up)
Fibroblast growth factor 7: CNDMTPEQMATNVNCSSPERHTRSYDYMEGGDIRVRRLFCRTQWYLRIDKRGKVKGTQEMKNNYNIMEIRTVAVGIVAIKGVESEFYLAMNKEGKLYAKKECNEDCNFKELILENHYNTYASAKWTHNGGEMFVALNQKGIPVRGKKTKKEQKTAHFLPMAIT
FiRE enhancer activation (CAT reporter activity) [1]: did not activate the enhancer; also recorded: no significant enhancer activation; also recorded: no effect | DNA synthesis / cell proliferation (125-IdU incorporation) (3T3NIH cells): significant increase in DNA synthesis | syndecan-1 mRNA expression (syndecan-1 mRNA): strongly induced | FiRE activation [2]: strongly activated FiRE

B2: FGF-4: growth factor, FGF family member (protein, UniProt P08620 31-206, looked up)
Fibroblast growth factor 4: APTAPNGTLEAELERRWESLVALSLARLPVAAQPKEAAVQSGAGDYLLGIKRLRRLYCNVGIGFHLQALPDGRIGGAHADTRDSLLELSPVERGVVSIFGVASRFFVAMSSKGKLYGSPFFTDECTFKEILLPNNYNAYESYKYPGMFIALSKNGKTKKGNRVSPTMKVTHFLPRL
FiRE enhancer activation (CAT reporter activity) [1]: lower effect
